Laboratory results from patent publication US20220332804A1 (CSL INNOVATION, published 2022).

Key:
Experiment in all cases: SPR, KD relative to WT C2;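 note: biacore SPR at 37 °C, anti-C2 mAbs captured on anti-human IgG chips with alanine or serine point mutants of C2 as analyte, KD from 1:1 fit compared with wild-type C2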
human C2 K457A = biological target: T1, human C2 K457A (human, UniProt P06681 21-752)
T1 sequence: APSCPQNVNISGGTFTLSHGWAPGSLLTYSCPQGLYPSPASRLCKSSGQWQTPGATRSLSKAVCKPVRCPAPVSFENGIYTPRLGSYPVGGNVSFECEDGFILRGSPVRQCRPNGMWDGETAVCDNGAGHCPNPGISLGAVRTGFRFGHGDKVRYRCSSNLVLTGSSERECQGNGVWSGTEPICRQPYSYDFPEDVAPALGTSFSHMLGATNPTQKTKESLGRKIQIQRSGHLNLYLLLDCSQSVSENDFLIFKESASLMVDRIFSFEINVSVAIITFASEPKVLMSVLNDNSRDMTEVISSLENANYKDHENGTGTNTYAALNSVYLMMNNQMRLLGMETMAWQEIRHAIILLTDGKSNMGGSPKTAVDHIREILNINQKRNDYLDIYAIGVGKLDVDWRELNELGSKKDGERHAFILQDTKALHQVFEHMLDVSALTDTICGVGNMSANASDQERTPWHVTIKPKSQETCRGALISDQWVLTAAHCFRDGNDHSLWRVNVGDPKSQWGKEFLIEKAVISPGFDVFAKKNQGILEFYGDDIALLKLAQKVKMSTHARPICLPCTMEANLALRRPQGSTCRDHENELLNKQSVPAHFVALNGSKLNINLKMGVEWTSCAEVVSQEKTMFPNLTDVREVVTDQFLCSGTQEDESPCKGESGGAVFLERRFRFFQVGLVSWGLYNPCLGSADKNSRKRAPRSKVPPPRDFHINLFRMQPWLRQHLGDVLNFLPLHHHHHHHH

human C2 A472S = biological target: T2, human C2 A472S (human, UniProt P06681 21-752)
T2 sequence: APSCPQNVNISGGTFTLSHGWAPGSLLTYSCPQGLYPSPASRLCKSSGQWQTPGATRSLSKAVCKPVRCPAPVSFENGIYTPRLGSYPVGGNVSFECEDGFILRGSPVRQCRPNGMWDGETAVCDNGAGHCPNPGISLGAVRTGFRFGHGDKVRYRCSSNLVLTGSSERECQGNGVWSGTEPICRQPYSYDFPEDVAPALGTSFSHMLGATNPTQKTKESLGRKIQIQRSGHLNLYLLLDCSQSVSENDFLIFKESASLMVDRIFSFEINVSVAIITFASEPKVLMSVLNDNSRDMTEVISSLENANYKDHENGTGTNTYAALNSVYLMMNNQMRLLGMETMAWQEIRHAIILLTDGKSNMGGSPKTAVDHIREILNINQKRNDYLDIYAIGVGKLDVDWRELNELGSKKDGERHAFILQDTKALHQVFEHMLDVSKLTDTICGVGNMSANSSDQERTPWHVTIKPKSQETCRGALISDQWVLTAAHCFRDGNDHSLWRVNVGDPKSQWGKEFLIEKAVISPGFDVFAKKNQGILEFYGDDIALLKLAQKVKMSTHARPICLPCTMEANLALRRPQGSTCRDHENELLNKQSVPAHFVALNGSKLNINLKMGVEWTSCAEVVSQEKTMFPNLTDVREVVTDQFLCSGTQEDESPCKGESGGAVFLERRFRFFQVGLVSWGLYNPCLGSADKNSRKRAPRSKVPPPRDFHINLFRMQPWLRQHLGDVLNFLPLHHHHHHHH

human C2 I272A = biological target: T3, human C2 I272A (human, UniProt P06681 21-752)
T3 sequence: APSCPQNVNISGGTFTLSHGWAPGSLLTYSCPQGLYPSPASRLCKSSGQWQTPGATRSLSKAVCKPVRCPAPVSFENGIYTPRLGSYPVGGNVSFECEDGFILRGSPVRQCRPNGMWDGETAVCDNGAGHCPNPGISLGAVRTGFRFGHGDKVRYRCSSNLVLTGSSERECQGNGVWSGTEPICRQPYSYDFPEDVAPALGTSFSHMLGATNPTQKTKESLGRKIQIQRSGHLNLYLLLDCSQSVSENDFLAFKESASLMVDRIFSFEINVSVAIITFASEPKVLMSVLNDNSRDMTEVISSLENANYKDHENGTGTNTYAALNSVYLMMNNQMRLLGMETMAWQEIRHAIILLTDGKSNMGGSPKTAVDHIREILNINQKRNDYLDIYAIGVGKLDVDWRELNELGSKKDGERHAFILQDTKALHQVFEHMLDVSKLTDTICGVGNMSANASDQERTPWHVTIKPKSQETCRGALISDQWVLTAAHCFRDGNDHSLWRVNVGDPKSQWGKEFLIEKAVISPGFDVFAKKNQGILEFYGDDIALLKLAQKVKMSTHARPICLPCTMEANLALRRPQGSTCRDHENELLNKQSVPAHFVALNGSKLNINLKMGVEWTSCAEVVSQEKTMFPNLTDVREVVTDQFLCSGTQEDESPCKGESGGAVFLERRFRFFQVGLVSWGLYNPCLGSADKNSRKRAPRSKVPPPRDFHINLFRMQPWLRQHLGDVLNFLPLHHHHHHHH

human C2 N403A = biological target: T4, human C2 N403A (human, UniProt P06681 21-752)
T4 sequence: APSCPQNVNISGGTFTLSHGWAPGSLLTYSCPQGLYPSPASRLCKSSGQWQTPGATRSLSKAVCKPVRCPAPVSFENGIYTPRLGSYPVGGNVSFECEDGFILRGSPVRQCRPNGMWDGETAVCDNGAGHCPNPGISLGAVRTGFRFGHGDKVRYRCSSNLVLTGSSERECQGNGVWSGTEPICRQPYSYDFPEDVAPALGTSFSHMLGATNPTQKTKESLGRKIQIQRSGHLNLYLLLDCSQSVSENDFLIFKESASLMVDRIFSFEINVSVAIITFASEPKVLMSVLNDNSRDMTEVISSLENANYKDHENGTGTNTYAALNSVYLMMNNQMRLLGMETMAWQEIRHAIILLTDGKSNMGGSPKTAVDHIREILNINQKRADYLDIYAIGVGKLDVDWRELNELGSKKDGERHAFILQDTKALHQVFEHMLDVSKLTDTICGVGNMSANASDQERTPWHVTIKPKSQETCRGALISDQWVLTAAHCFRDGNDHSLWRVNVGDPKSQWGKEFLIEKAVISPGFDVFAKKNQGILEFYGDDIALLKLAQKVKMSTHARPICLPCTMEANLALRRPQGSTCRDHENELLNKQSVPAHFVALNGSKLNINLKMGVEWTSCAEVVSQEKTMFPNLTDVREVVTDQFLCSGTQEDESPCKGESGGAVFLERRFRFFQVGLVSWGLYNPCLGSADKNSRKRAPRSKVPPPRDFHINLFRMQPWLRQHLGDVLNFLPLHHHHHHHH

B1: RF16-242 (antibody, human IgG4 S228P, lambda, V domains shown)
VH: EVQLLQSGAEVKKPGESLKISCKGSGYSFTSYWIGWVRQMPGKGLEWMGIIYPGDSDTRYSPSFQGQVTISADKSISTAYLQWSSLKASDTAMYYCARRGHYGDYFDYWGQGTLVTVSS
VL: SYELTQPPSVSVSPGQTARITCSGDALPKKYAYWYHQKSGQAPVLVIYEDRRRPSEIPERFSGSSSGTMATLTITGAQVEDEGVYFCYSRDRAGNQRVFGGGTQLTVLG
notes: pH-dependent anti-C2 antibody from a phage display library
Q: With B1 as the binder, how does the Fold diff (human C2 K457A) read?
A: Its Fold diff is 33 fold.

Q: What about the Fold diff (human C2 A472S) of the same binder?
A: Its Fold diff is 7 fold.

Q: And the Fold diff (human C2 I272A)?
A: The Fold diff was 1 fold.

Q: What about the Fold diff (human C2 N403A) of the same binder?
A: Its Fold diff is 1 fold.
